Laboratory results published in patent publication US20150111814A1.

Molecular target: HIV-1 BaL envelope protein spike (Env) on virions (HIV-1 BaL strain)
Assay: cell-based or functional assay

## MVN-DAVEI8 (microvirin-linker-MPER fusion)
  EC50 of virolysis (% p24 release): 780 nM
